Laboratory results: publication PMC5841405 (2018)
Changes are numbered by the printed parent chain. Names may count otherwise. Like-named read-outs stand apart in the source and are kept apart here.

T1: Spindly_(1–142) (human, UniProt Q96EA4-1 1-142)
T1 chain: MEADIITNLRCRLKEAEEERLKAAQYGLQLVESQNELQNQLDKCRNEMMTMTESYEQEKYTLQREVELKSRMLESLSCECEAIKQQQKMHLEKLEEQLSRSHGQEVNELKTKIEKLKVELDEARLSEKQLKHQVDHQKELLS

T2: BICD2_(1–98) (human, UniProt Q8TD16-1 1-98)
T2 chain: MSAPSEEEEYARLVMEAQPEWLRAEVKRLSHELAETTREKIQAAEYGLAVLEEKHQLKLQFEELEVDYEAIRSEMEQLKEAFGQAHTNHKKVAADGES

B1: Hook3_(1–160)A138D (domain or fragment)
chain: MFSVESLERAELCESLLTWIQTFNVDAPCQTVEDLTNGVVMAQVLQKIDPAYFDENWLNRIKTEVGDNWRLKISNLKKILKGILDYNHEILGQQINDFTLPDVNLIGEHSDAAELGRMLQLILGCAVNCEQKQEYIQDIMMMEESVQHVVMTAIQELMSK
B2: Hook3_(1–160) (domain or fragment)
chain: B1 chain with D138A

Legend:
[1] = target: MBP-LIC1FL (human); assay: ITC
[2] = target: MBP-LIC1FL (human); assay: ITC; remark: listed apart in the source
[3] = target: T1, Spindly_(1–142); assay: ITC; first site (KD1)
[4] = target: B2; assay: ITC
[5] = target: T2, BICD2_(1–98); assay: ITC; first site (KD1), 30°C
[6] = target: T2, BICD2_(1–98); assay: ITC; second site (KD2), 30°C
[7] = target: T1, Spindly_(1–142); assay: ITC; second site (KD2)

Chain of MBP-LIC1FL (human) (chain, as listed by the source): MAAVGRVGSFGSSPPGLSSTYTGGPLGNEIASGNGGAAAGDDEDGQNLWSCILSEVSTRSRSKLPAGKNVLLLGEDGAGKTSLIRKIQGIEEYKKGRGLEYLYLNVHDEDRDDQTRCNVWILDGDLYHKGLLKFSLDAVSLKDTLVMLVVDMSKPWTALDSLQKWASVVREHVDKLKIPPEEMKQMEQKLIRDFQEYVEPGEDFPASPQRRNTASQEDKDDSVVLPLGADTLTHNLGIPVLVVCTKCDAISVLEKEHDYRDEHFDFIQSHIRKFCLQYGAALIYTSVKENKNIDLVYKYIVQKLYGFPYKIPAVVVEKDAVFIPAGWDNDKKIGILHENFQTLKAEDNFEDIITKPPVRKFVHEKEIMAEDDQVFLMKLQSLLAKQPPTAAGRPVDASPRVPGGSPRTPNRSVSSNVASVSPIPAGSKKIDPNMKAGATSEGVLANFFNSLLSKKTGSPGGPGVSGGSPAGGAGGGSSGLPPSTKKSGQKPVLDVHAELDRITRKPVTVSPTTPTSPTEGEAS

Work on B1 yielded a Kd [1] of 8.1 µM.

B2 was tested, and the Kd [2] was 12.3 µM.

NMKAGATSEGVLANFFNSLLSKKTGS [LIC1_(433–458)] showed a Kd [3] of 3.6 µM, a Kd [4] of 6.3 µM and a Kd [5] of 1.5 µM. For the same binder, the Kd [6] was 7.5 µM and the Kd [7] was 7.6 µM.
